Experimental data reported in article PMC11651300 (Journal of the American Society for Mass Spectrometry, 2024).

Experiments:
[1] = target: Pyruvate kinase from rabbit (rabbit) (UniProt P11974); assay: native MS
[2] = target: the molecule itself; assay: native MS

Sequence of Pyruvate kinase from rabbit (P11974 whole entry): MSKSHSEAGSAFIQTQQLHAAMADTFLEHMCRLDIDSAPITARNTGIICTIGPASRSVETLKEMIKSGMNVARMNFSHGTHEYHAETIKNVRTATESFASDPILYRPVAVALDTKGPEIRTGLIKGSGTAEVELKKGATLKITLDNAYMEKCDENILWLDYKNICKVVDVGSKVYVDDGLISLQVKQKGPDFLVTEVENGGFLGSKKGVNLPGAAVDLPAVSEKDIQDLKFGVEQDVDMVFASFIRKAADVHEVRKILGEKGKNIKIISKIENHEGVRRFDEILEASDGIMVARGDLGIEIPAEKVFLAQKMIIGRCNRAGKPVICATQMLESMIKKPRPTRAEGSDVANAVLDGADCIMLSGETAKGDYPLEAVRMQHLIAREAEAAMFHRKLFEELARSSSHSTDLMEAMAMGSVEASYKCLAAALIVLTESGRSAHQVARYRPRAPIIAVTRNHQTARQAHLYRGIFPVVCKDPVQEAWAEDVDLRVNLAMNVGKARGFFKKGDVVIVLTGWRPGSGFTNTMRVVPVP

Molecule | stoichiometry N [1] | stoichiometry N [2]
Pyruvate kinase from rabbit (from UniProt P11974 1-531) (enzyme) | 4 | 
Cholera toxin B (natural protein) TPQNITDLCAEYHNTQIYTLNDKIFSYTESLAGKREMAIITFKNGAIFQVEVPGSQHIDSQKKAIERMKDTLRIAYLTEAKVEKLCVWNNKTPHAIAAISMAN |  | 5
